Data published in article PMC10790764.

Target: fusion protein F of hMPV A2-GFP (CAN97-83) on infected cells (human metapneumovirus A2 (CAN97-83))

other: 9 nM
B1: sdHMPV12 (VHH)
VHH: QVQLQESGGGLVQPGGSLRLSCAASGVSLAWYAIGWFRQAPGKDREGISCISASDDSTYYRDSVKGRVTISRDNGRNTVLLQMNSLKPEDTAVYYCATLRANYCSGPPTLGPYLGQGTQVTVSS
